Laboratory results taken from patent US20230272054A1, “COMBINATION THERAPIES FOR THE TREATMENT AND PREVENTION OF BIOFILMS” (priority 2020, published 2023).
Entries after “also recorded” stand apart in the source; their conditions may differ.

What was measured:
HJ DNA = experiment: Stabilization of HJ DNA at RT or 55° C, non-denaturing PAGE; type: binding; conditions: 32P HJ DNA, 25-500 nM protein, 10 min
Procedure: 5′ end-labeled ^32P HJ DNA was incubated with increasing concentrations (25-500 nM) of IHF (FIG. 8A), rHMGB1 (FIG. 8B) or RuvA (FIG. 8C) either at room temperature (RT) or at 55° C. for 10 min, then resolved on a 6% non-denaturing PAGE. Asterisk indicates melted oligos and arrows indicate DNA-protein complex. […] This outcome contrasts with that observed with both IHF and the prototypic HJ DNA binding protein, RuvA.
To test the hypothesis, HJ DNA was incubated with either HMGB1, the DNABII protein IHF, or the prototypic HJ DNA binding protein, RuvA at room temperature (RT) or 55° C. (melting temperature of HJ DNA) and resolved the complexes by non-denaturing polyacrylamide gel electrophoresis (PAGE). […] (FIG. 8) as indicated by the decrease in abundance of the shifted HJ DNA-HMGB1 complex (arrow) and the concomitant increase in the constituent melted oligos (asterisk).
Electrophoretic mobility shift assay (EMSA): EMSA was performed as previously described (Devaraj et al., 2019).

[1] = test system: eDNA lattice within K. pneumoniae biofilms; experiment: Visualization of eDNA lattice structure within K. pneumoniae biofilms (immunofluorescence, CLSM); type: cell-based, Klebsiella pneumoniae; conditions: 24 h K. pneumoniae biofilms, 200 nM protein, 16 h
From the text: Per the model as disclosed herein, HMGB1 would compete with DNABII proteins, wherein instead of stabilization, HMGB1 would de-stabilize these HJ-like structures and consequently disrupt the biofilm.

Human neutrophils = experiment: NET formation by neutrophils incubated with HMGB1 isoforms (CLSM); type: cell-based; conditions: 200 nM protein, 3.5 h
Procedure: Neutrophils were fixed, then labeled as described above to visualize the NETs.
Visualization of NETs structure upon incubation of neutrophils with various isoforms of HMGB1: Human neutrophils were isolated from blood using the EASYSEP™ isolation kit (Stemcell Technologies Inc.). […] NETs were fixed in formalin, blocked with 10% normal goat serum (Life Technologies), and labeled with α-dsDNA monoclonal antibody (1 μg), and α-neutrophil elastase polyclonal antibody (1 μg) or naive rabbit and mouse isotype controls (1 μg) in 200 μl PBS for 16 h hours at 4° C. NETs were washed with PBS and incubated for 1 h with 1:200 dilution goat α-rabbit IgG conjugated to ALEXAFLUOR® 594, goat α-mouse IgG conjugated to ALEXAFLUOR® 488, and 1:500 dilution wheat germ agglutinin conjugated to ALEXAFLUOR® 350 (PMN membrane stain). NETs were imaged with a Zeiss LSM 800 confocal microscope (Carl Zeiss Inc.) and rendered with Zeiss Zen software.

[2] = Inflammatory cell recruitment into lungs of B. cenocepacia-challenged mice (H&E, flow cytometry of BAL); type: in vivo, C57BL/6 mice; conditions: B. cenocepacia-challenged mice, 0.2 nmol, 72 hpi
neutrophils in BAL = experiment: as above; type: in vivo, C57BL/6 mice; conditions: B. cenocepacia-infected and simultaneously treated, 0.2 nmol, 18 hpi
TNF-α = experiment: Mouse model of endotoxemia, serum TNF-α by ELISA; type: in vivo, C57BL/6 mice; conditions: i.p. 0.2 nmol endotoxin-free rHMGB1 or LPS 5 mg/kg; 24 h
Procedure: Since excess HMGB1 can mediate dysregulated host response to infection associated with septic shock, the ability of rHMGB1 (0.2 nmol; the concentration used to treat in vivo biofilms) to induce septic shock was evaluated in mice. Mice were injected i.p. with either 0.2 nmol endotoxin-free rHMGB1, lipopolysaccharide (LPS; 5 mg/kg) or both, then monitored for signs of septic shock for 24 hours.
Mouse model of endotoxemia: C57BL/6 mice were injected i.p. with 5 mg/kg of E. coli lipopolysaccharide (Sigma), or 0.2 nmol rHMGB1 alone or in combination with LPS. Animals were euthanized 24 h later, serum was collected, and TNF-α was quantified by ELISA (ThermoFisher).

[3] = test system: pro-inflammatory and anti-inflammatory cytokines; experiment: Quantitation of cytokines in middle ear fluids (cytometric bead array); type: in vivo, chinchilla (Chinchilla lanigera); conditions: six days after NTHI challenge, one day after completion of treatment
Procedure: Quantitation of cytokines in middle ear fluids: To quantitate cytokines in middle ear fluids (MEF), a BD™ Cytometric Bead Array was performed with fluids collected at the time of animal sacrifice. With BD™ human-specific Flex Sets, each MEF was individually examined for relative quantity of IL-1β, IL-4, IL-6, IL-8, IL-10, IL12-p70, IL-13, IL-17A, TNF or IFNγ according to manufacturer's instructions. MEFs from each animal were assayed individually. Data were captured on a BD ACCURI™ C6 cytometer (BD Biosciences) and analyzed with FlowJo software (FlowJo, LLC). The concentration of cytokines in each MEF was determined using a standard curve and calculated using GraphPad Prism software.

B. cenocepacia = experiment: Murine model of lung infection by B. cenocepacia, bacterial burden; conditions: 0.2 nmol i.t. at 24 hpi; 72 hpi; α-EF-Tu labeling
Procedure: Intratracheal challenge of the murine lung with B. cenocepacia and treatment with HMGB1 isoforms: B. cenocepacia strain K56-2, was cultured in LB broth (Difco, Md.) at 37° C. overnight at 200 rpm. Bacterial concentration was adjusted before each experiment based on OD at 600 nm. C57BL/6 mice were infected intratracheally (i.t.) with 10^7 colony forming units (CFU) of B. cenocepacia. […] Animals were euthanized 24 or 48 hpi, and bronchoalveolar lavage (BAL) was collected with 1 ml of PBS plus 1 mM EDTA. […] The slides were permeabilized with 0.5% Triton X-100 for 10 minutes, blocked with 10% normal goat serum (Abcam) for 30 minutes and stained with a monoclonal antibody against E. coli Elongation Factor-Tu (α-EF-Tu; cross reacts with B. cenocepacia) (LSBio) overnight to label B. cenocepacia. The samples were then stained with goat α-mouse IgG Alexa Fluor 488 (Abcam) for 1 h at RT, mounted with fluoroshield media with DAPI (Abcam), visualized via the Nikon Eclipse Ti at 40× magnification (Nikon Instrument Inc. Americas) and analyzed by ImageJ software (NIH). To enumerate bacterial burden, the animals were euthanized 18 or 72 hpi, bronchoalveolar lavage was collected with 1 ml of PBS plus 1 mM EDTA, an aliquot of BAL was serially diluted and plated on LB agar. […] Neither animals nor samples were excluded from evaluation in any study.

UPEC biofilms [4] = experiment: Disruption of 24 h UPEC biofilms in vitro (CLSM, COMSTAT average thickness); conditions: 24 h UPEC biofilms, indicated concentrations of rHMGB1
S. aureus biofilms = experiment: Disruption of 24 h S. aureus biofilms in vitro (CLSM, COMSTAT average thickness); conditions: 24 h biofilms, 16 h; non-bactericidal dose
E. faecium biofilms = experiment: Disruption of 24 h E. faecium biofilms in vitro (CLSM, COMSTAT average thickness); conditions: 24 h biofilms, 1 h incubation; non-bactericidal dose
UPEC biofilms [5] = conditions: 24 h UPEC biofilms, rHMGB1 200 nM, 16 h
[6] = test system: biofilms formed by UPEC, B. cenocepacia, NTHI, Enterobacter spp, S. aureus, K. pneumoniae, A. baumanii, P. aeruginosa, E. faecium; experiment: Disruption of 24 h bacterial biofilms in vitro by HMGB1 isoforms (LIVE/DEAD stain, CLSM, COMSTAT average thickness); conditions: 24 h biofilms of nine pathogens; 200 nM protein, 16 h (S. aureus 800 nM rHMGB1; E. faecium 800 nM, 1 h)

B1: rHMGB1: recombinant HMGB1 derived from a human, expressed and purified in E. coli, SEQ ID NO: 51; comparator to mHMGB1 (protein, listed as Homo sapiens)
chain: MGKGDPKKPRGKMSSYAFFVQTCREEHKKKHPDASVNFSEFSKKCSERWKTMSAKEKGKFEDMAKADKARYEREMKTYIPPKGETKKKFKDPNAPKRPPSAFFLFCSEYRPKIKGEHPGLSIGDVAKKLGEMWNNTAADDKQPYEKKAAKLKEKYEKDIAAYRAKGKPDAAKKGVVKAEKSKKKKEEEEGEEDEEDEEEEEDEEDEDEEEDDDDE
stabilization of HJ DNA at 55° C (melting temperature of HJ DNA) (HJ DNA): unstable at 55 °C
stabilization of HJ DNA at 55° C (melting temperature of HJ DNA) (HJ DNA; listed as HMGB1): unable to efficiently stabilize the HJ DNA at 55 °C
HJ DNA-protein complex at room temperature (RT) (HJ DNA): stable at RT
HJ DNA-protein complex at room temperature (RT) (HJ DNA; listed as HMGB1): bound to HJ DNA to form stable complexes at RT
biofilm bacteria (FilmTracer FM 4-64) [1]: substantial reduction in biofilm bacteria
web-like eDNA lattice structure within biofilm [1]: disruption of the web-like structure; also recorded: notably disrupted
induction of NET formation by neutrophils (Human neutrophils): intertwined NETs specifically formed; also recorded: modest effect on induction of NETs
infiltration of inflammatory cells into lungs (H&E) [2]: significant infiltration of inflammatory cells
neutrophils in BAL (flow cytometry) (neutrophils in BAL): significantly greater number of neutrophils in BAL compared to the control
serum TNF-α (septic shock) (TNF-α): did not induce septic shock; also recorded: did not induce detectable TNF-α
IL-1β in middle ear fluids [3]: significantly elevated concentration; also recorded: statistically significant increase
IL-17A in middle ear fluids [3]: significantly elevated concentration; also recorded: statistically significant increase
B. cenocepacia stained within the lung tissue (B. cenocepacia): significantly reduced bacterial load
dose dependence of UPEC biofilm disruption (UPEC biofilms [4]): dose-dependent disruption; also recorded: dose-dependent activity
dose required to achieve a similar reduction in biofilm average thickness, S. aureus (S. aureus biofilms): 800 nM
dose required to achieve a similar reduction in biofilm average thickness, E. faecium (E. faecium biofilms): 800 nM
bacteria in the planktonic state (UPEC biofilms [5]): statistically significant increase in the planktonic bacteria
biofilm-resident bacteria (UPEC biofilms [5]): statistically significant decrease in biofilm-resident bacteria
biofilm average thickness compared to control [6]: significantly disrupted bacterial biofilms; also recorded: significant reduction in biofilm average thickness
